Experiments:
Assay in all cases: cell-based or functional assay
[1] = target: CSF-1R on cynomolgous monocytes (cynomolgous)
[2] = target: human mutant CSF-1R L301S Y969F, full-length, on NIH 3T3 cells (human) (UniProt P07333)
[3] = target: human wildtype CSF-1R (wt CSF-1R), full-length, on cells (human) (UniProt P07333)

Substance	% inhibition (of survival) = (100%-% survival), cynomolgous monocytes at 5 µg/ml antibody [1] [%]	% survival of cynomolgous monocytes at 5 µg/ml antibody (CellTiterGlo) [1] [%]	Mutant CSF-1R IC30 (cell viability, 3D spheroids, CellTiterGlo) [2] [µg/mL]	Mutant CSF-1R IC50 (cell viability, 3D spheroids, CellTiterGlo) [2] [µg/mL]	wtCSF-1R IC30 (cell viability, 3D spheroids, CellTiterGlo) [3] [µg/mL]	wtCSF-1R IC50 (cell viability, 3D spheroids, CellTiterGlo) [3] [µg/mL]
Anti CSF-1R SC 2-4A5 (Santa Cruz Biotechnology, US) (antibody)	69	31	2.56	10	16.6	10
goat polyclonal anti-CSF-1R antibody ab10676 (abcam)	–	–	> 20	–	14.2	–

— patent US20170247459A1, “COMBINATION THERAPY OF ANTIBODIES AGAINST HUMAN CSF-1R AND USES THEREOF” (HOFFMANN-LA ROCHE INC., priority 2012, published 2017)
